Consider two molecules from patent US20220041702A1 (Innovent, published 2022).

For assay [1], the target named is T1, GITR expressed on cell surface (CHO cells overexpressing GITR) (Homo sapiens (Human), UniProt Q9Y5U5 26-241).
T1 construct: also called GITR on cell surface
T1 sequence: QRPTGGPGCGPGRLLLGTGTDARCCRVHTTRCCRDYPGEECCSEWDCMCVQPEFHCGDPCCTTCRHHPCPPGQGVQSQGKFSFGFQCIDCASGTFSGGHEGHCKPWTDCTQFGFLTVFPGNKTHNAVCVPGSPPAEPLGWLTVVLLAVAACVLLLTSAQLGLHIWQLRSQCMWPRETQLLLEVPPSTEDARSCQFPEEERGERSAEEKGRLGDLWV
Put plainly: FACS on CHO cells overexpressing GITR, PE-conjugated anti-human Fc detection.

A further assay addresses T2, human OX40-his (human, UniProt P43489 29-216).
T2 construct: Bought soluble protein
T2 sequence (looked up): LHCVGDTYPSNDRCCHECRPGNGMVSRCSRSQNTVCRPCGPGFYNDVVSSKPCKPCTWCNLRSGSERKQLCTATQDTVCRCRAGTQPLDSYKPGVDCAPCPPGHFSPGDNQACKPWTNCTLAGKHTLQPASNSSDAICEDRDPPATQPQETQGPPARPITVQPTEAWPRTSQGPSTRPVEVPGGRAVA
In words: ForteBio Octet BLI, antibody on AHC tip, human OX40-His 100 nM in solution, monovalent. Here is the method:
A ForteBio affinity assay was performed according to the method reported in the literature (Estep, P, et al., High throughput solution Based measurement of antibody-antigen affinity and epitope binning MAbs, 2013, 5(2): p. 270-278). Briefly, the AHC sensor (Pall, Catalog No.: 1506091) was immersed in a SD buffer (PBS 1×, BSA 0.1%, Tween 20 0.05%) and equilibrated at room temperature, half an hour before the experiment. […] The anti-human IgG Fc biosensor AHC was immersed in each well containing the antibody solution, and immersed at room temperature for 600 s to load the samples. The sensor was then washed in the SD buffer until it returned to the baseline, and then immersed in a well containing 100 μL of the antigen solution to monitor the binding of the antibody to the antigen. The sensor was then transferred to a well containing 100 μL of the SD buffer to monitor the antibody dissociation. The rotation speed was 400 rpm and the temperature was 30° C. The background-corrected association and dissociation curves were fitted by the Octet analysis software (ForteBio) to generate the binding rate constant (kₒₙ) and dissociation rate constant (kdis), which are then used to calculate the equilibrium dissociation constant (KD).
On the technique in general: In BLI a coated tip is dipped into the sample, and binding shifts an interference pattern.

For assay [2], the target named is T3, human OX40 expressed on the surface of cells (CHO cells overexpressing human OX40) (human, UniProt P43489 29-277).
T3 construct: whole, on cells; also called CHO-OX40 cells; CHO cells overexpressing OX40
T3 sequence (looked up): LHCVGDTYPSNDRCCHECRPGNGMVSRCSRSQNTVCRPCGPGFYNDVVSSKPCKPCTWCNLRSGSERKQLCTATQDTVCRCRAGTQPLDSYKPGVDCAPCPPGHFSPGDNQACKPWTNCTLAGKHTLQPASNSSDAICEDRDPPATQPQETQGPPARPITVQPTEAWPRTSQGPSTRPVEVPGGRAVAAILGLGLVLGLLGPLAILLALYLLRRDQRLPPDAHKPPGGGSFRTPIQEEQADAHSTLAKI
In words: FACS on CHO-OX40 cells, PE anti-human Fc.

B1: IgG1 control antibody (antibody, V domains shown)
VH: EVRLLESGGGLVQPGGSLRLSCAASGFTFSNYAMGWVRQAPGKGLEWVSAISGSGGSTYYADSVKGRFTTSRDDSKNALYLQMNSLRAEDTAVYYCARGGPGWYAADVWGQGTTVTVSS
VL: DIQMTQSPSSLSASVGDRVTITCRASQSISSYLNWYQQKPGKAPKLLIYAASSLQSGVPSRFSGSGSGTDFTLTISSLQPEDFATYYCQQADLPAFAFGGGTKVEIKR
notes: Negative control; also called IgG1 negative control
As to B1, in assay [1], the binding result is “no binding”.

B2: anti-OX40 antibody ADI-20112 (antibody, human IgG1, kappa, V domains shown)
VH: QVQLVESGGGVVQPGRSLRLSCAASGFTFSSYGMHWVRQAPGKGLEWVAVISYDGSNKYYADSVKGRFTISRDNSKNTLYLQMNSLRAEDTAVYYCARGRPWYSETGTSAFDIWGQGTMVTVSS
VL: DIQMTQSPSSLSASVGDRVTITCQASQDISNYLNWYQQKPGKAPKLLIYDASNLETGVPSRFSGSGSGTDFTFTISSLQPEDIATYYCQQSDHYPTFGGGTKVEIKR
notes: also called parent anti-OX40 antibody
Broadly, the Kd is the free concentration of one partner at which half of the binding sites on the other are occupied at equilibrium, for simple one-to-one binding. As a reminder, the koff is the rate constant with which the complex falls apart. For orientation: kon means the rate constant with which the complex forms. Lower therefore signals slow association. Broadly, the EC50 is the concentration that produces a half-maximal response. A higher EC50 goes with weaker potency. On to B2, for which, in the assay with human OX40-his, the Kd is 215 nM, the koff came to 0.029 s⁻¹ and the association rate constant (kon) is 135000 M⁻¹ s⁻¹. In assay [2], this molecule yielded a half-maximal effective concentration (EC50) of 2.19 nM.
